In series [1] the target is T1, BRCA2T1 (human, UniProt P51587 1-250).
T1 sequence: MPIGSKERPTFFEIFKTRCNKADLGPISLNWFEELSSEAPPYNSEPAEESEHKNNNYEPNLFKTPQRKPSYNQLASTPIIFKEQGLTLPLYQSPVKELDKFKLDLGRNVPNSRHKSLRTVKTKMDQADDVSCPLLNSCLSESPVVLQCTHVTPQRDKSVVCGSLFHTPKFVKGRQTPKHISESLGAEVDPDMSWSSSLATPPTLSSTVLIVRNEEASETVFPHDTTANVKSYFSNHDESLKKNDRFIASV
The series can be described thus: pull-down; not titrated out by free dT40; EMSA: 25 mM Tris acetate pH 7.5, 1 mM DTT, 1 mM MgCl2, 2 mM CaCl2, 0.2 uM nucleotides DNA, 1 h at 37 C; 6% native PAGE in 1x TAE. Particulars: protein: recombinant; tags: N-terminal 2xMBP, 2 NLS; label: biotin, on streptavidin beads. Background: In EMSA bound probe runs differently from free probe, usually more slowly.

Series [2] deals with T2, BRCA2T2 (NTD) (human, UniProt P51587 251-500).
T2 sequence: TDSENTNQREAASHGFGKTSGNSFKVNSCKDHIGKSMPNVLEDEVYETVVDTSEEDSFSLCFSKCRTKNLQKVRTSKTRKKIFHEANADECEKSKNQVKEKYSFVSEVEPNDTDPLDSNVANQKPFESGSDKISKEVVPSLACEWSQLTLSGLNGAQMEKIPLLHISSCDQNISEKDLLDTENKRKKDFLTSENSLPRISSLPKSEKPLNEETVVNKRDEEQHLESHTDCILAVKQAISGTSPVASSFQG
The series can be described thus: pull-down; titrated out by excess free dT40; EMSA: 25 mM Tris acetate pH 7.5, 1 mM DTT, 1 mM MgCl2, 2 mM CaCl2, 0.2 uM nucleotides DNA, 1 h at 37 C; 6% native PAGE in 1x TAE. Conditions: protein: recombinant; tags: N-terminal 2xMBP, 2 NLS; label: biotin, on streptavidin beads.

The target of series [3] is T3, BRCA2 CTD;DSS1 (human;human?, UniProt P51587;P60896 2474-3190;1-70, |). The experiment in a line: EMSA; lower yield than BRCA2T2; EMSA: 25 mM Tris acetate pH 7.5, 1 mM DTT, 1 mM MgCl2, 2 mM CaCl2, 0.2 uM nucleotides DNA, 1 h at 37 C; 6% native PAGE in 1x TAE. Particulars: protein: recombinant;recombinant, tags: 6xHis-SUMO;, copies: 1;1.
Series [4] deals with T2, BRCA2T2 (NTD). The series can be described thus: EMSA; yield similar to dsDNA (~40%) at 1.5 uM; EMSA: 25 mM Tris acetate pH 7.5, 1 mM DTT, 1 mM MgCl2, 2 mM CaCl2, 0.2 uM nucleotides DNA, 1 h at 37 C; 6% native PAGE in 1x TAE. Particulars: protein: recombinant; tags: N-terminal 2xMBP, 2 NLS; label: 5'-32P.
Series [5] has as its target BRCA2 full length (human, UniProt P51587 1-3418). The experiment in a line: EMSA; ~100 times lower concentration needed than BRCA2T2; EMSA: 25 mM Tris acetate pH 7.5, 1 mM DTT, 1 mM MgCl2, 2 mM CaCl2, 0.2 uM nucleotides DNA, 1 h at 37 C; 6% native PAGE in 1x TAE. Conditions: protein: recombinant; tags: N-terminal EGFP-MBP; label: 5'-32P.
The target of series [6] is T2, BRCA2T2 (NTD). The series can be described thus: EMSA; higher yield than CTD; EMSA: 25 mM Tris acetate pH 7.5, 1 mM DTT, 1 mM MgCl2, 2 mM CaCl2, 0.2 uM nucleotides DNA, 1 h at 37 C; 6% native PAGE in 1x TAE. Conditions: protein: recombinant, tags: N-terminal 2xMBP, 2 NLS.
Series [7] has as its target T3, BRCA2 CTD;DSS1. The experiment in a line: EMSA; ~40-fold lower yield than BRCA2T2 at 1 uM; EMSA: 25 mM Tris acetate pH 7.5, 1 mM DTT, 1 mM MgCl2, 2 mM CaCl2, 0.2 uM nucleotides DNA, 1 h at 37 C; 6% native PAGE in 1x TAE. Conditions: protein: recombinant;recombinant; tags: 6xHis-SUMO;; copies: 1;1; label: 32P; 1:2 1:3, two 42 bp duplexes with 83 nt gap.
Series [8] addresses T2, BRCA2T2 (NTD). The series can be described thus: EMSA; EMSA: 25 mM Tris acetate pH 7.5, 1 mM DTT, 1 mM MgCl2, 2 mM CaCl2, 0.2 uM nucleotides DNA, 1 h at 37 C; 6% native PAGE in 1x TAE. Conditions: protein: recombinant; tags: N-terminal 2xMBP, 2 NLS; label: 32P; 1:2 1:3, two 42 bp duplexes with 83 nt gap.
In series [9] the target is T3, BRCA2 CTD;DSS1. Described as above. Conditions: protein: recombinant;recombinant; tags: 6xHis-SUMO;; copies: 1;1; label: 5'-32P on oAC405; blunt.
The target in series [10] is T1, BRCA2T1. The experiment in a line: EMSA; up to 300 nM; EMSA: 25 mM Tris acetate pH 7.5, 1 mM DTT, 1 mM MgCl2, 2 mM CaCl2, 0.2 uM nucleotides DNA, 1 h at 37 C; 6% native PAGE in 1x TAE. Particulars: protein: recombinant; tags: N-terminal 2xMBP, 2 NLS; label: 5'-32P.

B1: dT80 biotin (ssDNA)
DNA: TTTTTTTTTTTTTTTTTTTTTTTTTTTTTTTTTTTTTTTTTTTTTTTTTTTTTTTTTTTTTTTTTTTTTTTTTTTTTTTT
modifications: 3'-biotin
As for B1, the results for the binding result in [1] and in series [2] were “no binding” and “binds”, respectively.

B2: 167mer ssDNA (oAC423) (ssDNA)
DNA: CTGCTTTATCAAGATAATTTTTCGACTCATCAGAAATATCCGTTTCCTATATTTATTCCTATTATGTTTTATTCATTTACTTATTCTTTATGTTCATTTTTTATATCCTTTACTTTATTTTCTCTGTTTATTCATTTACTTATTTTGTATTATCCTTATCTTATTTA
For B2, the binding result in series [3] (label: 5'-32P), in [4] and in [5] was “binds” in each case.

B3: 3' overhang (oAC423 + oAC490 as stated) (mixed)
DNA 1: B2 DNA
DNA 2: TAAATAAGATAAGGATAATACAAAATAAGTAAATGAATAAAC
As to B3, the binding result in series [3] (label: 32P on oAC490) and in [6] (label: 32P on oAC490) was “binds” each time.

B4: 5' overhang (oAC423 + oAC403 as stated) (mixed)
DNA 1: B2 DNA
DNA 2: CGGATATTTCTGATGAGTCGAAAAATTATCTTGATAAAGCAG
For B4, the binding result in [3] (label: 32P) and in series [6] (label: 32P) was “binds” throughout.

B5: gapped DNA (oAC423 + oAC403 + oAC490) (mixed)
DNA 1: B2 DNA
DNA 2: B4 DNA 2
DNA 3: B3 DNA 2
For B5, in series [7], the binding result was “binds”. Further, in series [8], the binding signal was ~40 fold higher yield than CTD at 1 uM.

B6: 40 bp dsDNA (oAC405/oAC406) (dsDNA)
DNA 1: TAATACAAAATAAGTAAATGAATAAACAGAGAAAATAAAG
DNA 2: CTTTATTTTCTCTGTTTATTCATTTACTTATTTTGTATTA
Consider B6, for which the binding result in [9] is reported as “no binding”. TTTTTTTTTTTTTTTTTTTTTTTTTTTTTTTTTTTTTTTT (ssDNA) [dT40 (oAC379)]: in series [10], the binding result is “no binding”.

These data come from article PMC5027613, “A second DNA binding site in human BRCA2 promotes homologous recombination”.
